Data as given in the nanobody polyreactivity screen of Harvey et al. (2022).

Assay: yeast display, Sf9 membrane polyspecificity reagent, FACS + sequencing; frameworks hold sequencing errors
Summary of the method: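 Galactose induction of a Saccharomyces cerevisiae BJ5465 synthetic nanobody display library ran 36–48 hours. The cells were then stained for 1 hour at 4 °C with 10% biotinylated, detergent-solubilized Sf9 membrane reagent, pulled down on streptavidin microbeads and FACS-sorted into low and high (top ~1%) gates on expression and reagent-binding fluorescence. Labels for polyreactivity follow the gate of origin.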

Row | Sequence | polyreactivity (PSR sort gate)
1 | QVQLVESGGGLVQAGGSLRLSCAASGRIFWYNAMGWYRQAPGKERELVAGITRSGGRTYYADSVKGRFTISRDNAKNTVYLQMNSLKPEDTAVYYCAAAPYARRDYEYWGQGTQVTVSS | high polyreactivity
2 | QVQLVESGGGLVQAGGSLRLSCAASGRIFWYNAMGWYRQAPGKERELVAGITSGGRTNYADSVKGRFTISRDNAKNTVYLQMNSLKPEDTAVYYCAADVPPGEVVTNDYWGQGTQVTVSS | low polyreactivity
3 | QVQLVESGGGLVQAGGSLRLSCAASGRIFWYNAMGWYRQAPGKERELVAVITSGTSTYYADSVKGRFTISRDNAKNTVYVHMNSLKPDDTAVYYCAARYLSRYSERHYYDWGQGTQVTVSS | high polyreactivity
4 | QVQLVESGGGLVQAGGSLRLSCAASGRIFWYNAMGWYRQAPGKERGLVAVISTRGGRTYYADSVKGRFTISRDNAKNTVYLQMNSLKPEDTAVYYCAAEFLNKAVGGVTSIYDSWGQGTQVTVSS | low polyreactivity
5 | QVQLVESGGGLVQAGGSLRLSCAASGRIFYAYTMGWYRQAPGKERELVAAISGSGSTYYADSVKGRFTISRDNAKNNVYLQMNSLKPEDTAVYYCAKRYRFHFWGQGTQVTVSS | low polyreactivity
6 | QVQLVESGGGLVQAGGSLRLSCAASGRIFYAYTMGWYRQAPGKERELVAAISGSGSTYYADSVKGRFTISRDNAKNTVYLQMNSLKPEDTAVYYCAADVTGGRKYDYWGQGTQVTLSS | low polyreactivity
7 | QVQLVESGGGLVQAGGSLRLSCAASGRIFYAYTMGWYRQAPGKESELVAAIRYGGGSTYYADSVKGRFTISRDNAKNTVYLLMNSLIPEDTAVYYCARDRYNLYSRSYYWGQGTQVTVSS | low polyreactivity
8 | QVQLVESGGGLVQAGGSLRLSCAASGRIFYDNAMGWYRQAPGKERELVAAISYSGDSTYYADSVKGRFTISRDNAKNTVYLQMNSLKPEDTAVYYCAAVYISQGAFAYDYWGQGTQVTVTS | low polyreactivity
9 | QVQLVESGGGLVQAGGSLRLSCAASGRIFYDYAMGWYRQAPGKERELVAAISKGGGSTYYADSVKGRFTISRDNAKNTVYFQMNSLKPEDTAVYYCASSTSHTTDTRYDYWGQGTQVTVSS | low polyreactivity
10 | QVQLVESGGGLVQAGGSLRLSCAASGRIFYDYTMGWYRPAPGKERELVAAINSGGGSTYYADSVKGRFTISRDNAKITVYLQMNSLKPEDTAVYYCNADGQWNIWEYDYWGQGTQVTVSS | high polyreactivity
11 | QVQLVESGGGLVQAGGSLRLSCAASGRIFYDYTMGWYRQAPGKERELVAAINSGGGSTYYADSVKGRFTISRDNAKITVYLQMNSLKPEDTAVYYCNADGQWNIWEYDYWGQGTQVTVSS | high polyreactivity
12 | QVQLVESGGGLVQAGGSLRLSCAASGRIFYFYAMGWYRQAPGKERELVAAISTSGGSTYYPDSVKGRFTISRDNAKNTVYLQMNSLKQEDTAVYYCAARFRYYGSEYDYWGQGTQVTVSS | low polyreactivity
13 | QVQLVESGGGLVQAGGSLRLSCAASGRIFYFYAMGWYRQAPGKERELVASISYSGGNTYYADSVKGRFTISRDNAKNTVYLQMNSLKPEDTAVYYCNVLPNTGARGYYYWGQGTQVNVSS | low polyreactivity
14 | QVQLVESGGGLVQAGGSLRLSCAASGRIFYFYAMGWYRQAPGKERELVAVISYGGDRTSYADSVKGRFTISRDNAKNTVYLQMNSLKPEDTAVYYCAARPFYRGYYYWGQGTQVTVSS | high polyreactivity
15 | QVQLVESGGGLVQAGGSLRLSCAASGRIFYFYTMGWYRQAPGKEREFVAAISDSGDGTYYADSVKGRFTISRDNAKNTVYLQMNSLKPEDTAVYYCAADGTLFSEYYWFFGYHDYWGQGTQVTVSS | high polyreactivity
16 | QVQLVESGGGLVQAGGSLRLSCAASGRIFYGNAMGWYRQAPGKERELVARISSGSSTNYADSVKGRFTISRDNAKNTVYLQMNSLKPEDTAVYYCAARYTARRQSYGYWGQGTQVTVSS | high polyreactivity
17 | QVQLVESGGGLVQAGGSLRLSCAASGRIFYGNAMGWYRQAPGKERQLVAAITDGGSTNYADSVKGRFTISRDNAKNTVYLQINSLKPEDTAVYYCNADNILYWSTLDYWGQGTQVTVSS | low polyreactivity
18 | QVQLVESGGGLVQAGGSLRLSCAASGRIFYGNDRGWYRQAPGKERELVAAITWSGGSTYYADSVKGRFTISRDNAKNTVYLQMNSLKPEDTAVYYCAAVPRRGWDIRRYDSWGQGTQVTVSS | high polyreactivity
19 | QVQLVESGGGLVQAGGSLRLSCAASGRIFYGYAMGWYRQAPGKEREFVAAITSGGRTYYADSVKGRFTISRDNAKNTVYLQMNSLKPEDTAVYYCAAAQYYRYGYWGQGTQVTVSS | high polyreactivity
20 | QVQLVESGGGLVQAGGSLRLSCAASGRIFYGYAMGWYRQAPGKEREFVARINVSGTSTFYADSVKGRFTISRDNAKNSVYLQMHSLKPEDTAVYYCAARGLPSNYYYYVHGYIMDYWGQGTQVTVSS | low polyreactivity
21 | QVQLVESGGGLVQAGGSLRLSCAASGRIFYGYAMGWYRQAPGKERELVAAITRSSSTYYADSVKGRFTISRDNAKNTVYLQMNSLKPEDTAVYYCNARVWAKYDYWGQGTQVTVSS | high polyreactivity
22 | QVQLVESGGGLVQAGGSLRLSCAASGRIFYGYTMGCYRQAPGKETELVASITIRGSRTYYADSVKGRFTISRDNAKNTVYVQMNSLKPEDTAVYYCAADFVPARTVHRYDYWGQGTQVTVSS | low polyreactivity

Row | Sequence | polyreactivity (PSR sort gate)
23 | QVQLVESGGGLVQAGGSLRLSCAASGRIFYGYTMGWYRQAPGKERELVAAISWSGGSTYYADSVKGRFTISRDNAKNTVYLQLNSLKPEDTAVYYCNAVTLWYIYGWDYYYWGQGTQVTVSS | high polyreactivity
24 | QVQLVESGGGLVQAGGSLRLSCAASGRIFYGYTMGWYRQAPGKERELVAAITRSTGSTYYADSVKGRFTISRDNAKNTVYLQMNSLKPEDTAVYYCAKYGYTNTPKSPMDYWGQGTQVTVSS | low polyreactivity
25 | QVQLVESGGGLVQAGGSLRLSCAASGRIFYHNAMGWYRQAPGKERELVAAITWSGGSTYYADSVKGRFTISRDNAKNTVYLQMNSLKPEDTAVYYCAAYFYGRSYGYDYWGQGTQVTVSS | high polyreactivity
26 | QVQLVESGGGLVQAGGSLRLSCAASGRIFYHYAMGWYRQAPGKERELVAGINYRGGSTTYADSVKGRFTISRDNAKNTVYLQMNSLKPEDTAVYYCATLYPWKFPIRETGFDSWGQGTQVTVSS | low polyreactivity
27 | QVQLVESGGGLVQAGGSLRLSCAASGRIFYHYAMGWYRQAPGTERELVAAINSSGGSTHYADSVKGRFTISRDNAKNTVYLQMNSLKPVDTAVYYCAADGYWRDYSGYWDYYYIYDYWGQGTQVTVSS | low polyreactivity
28 | QVQLVESGGGLVQAGGSLRLSCAASGRIFYHYPMGWYRQAPGKEREFVAAISLRAGSTYYADSVKGRFTISRYNAKNNVYLQMNSLKPEDTAFYYCAARRASYVTSRYDYWGQGTQVTVSS | high polyreactivity
29 | QVQLVESGGGLVQAGGSLRLSCAASGRIFYINDMGWYRQAHGKERELVAAISASGGSTYYADSVKGRFTISRDNAKNTVYLQMNSLKPEDTAVYYCAAVYFHPGYDLFDYWGQGTQVTVSS | low polyreactivity
30 | QVQLVESGGGLVQAGGSLRLSCAASGRIFYIYAMGWYRQAPGKERELVAAISSGGTTNYADSVKGRFTISRDNAKNTVYLQMNSLKPEDTAVYYCAAYWRSRNRFYWGQGTQVTVSS | high polyreactivity
31 | QVQLVESGGGLVQAGGSLRLSCAASGRIFYKYAMGWYRQAPGKERELVAAISYSGGSTYYADSVKGRFTISRDNAKNTVYLQMKSLKPEDTAVYYCNAKPPYGVRSWGDYWGQGTQVTVSS | low polyreactivity
32 | QVQLVESGGGLVQAGGSLRLSCAASGRIFYLNAMGWYRQAPGKERELVAAITRSAASTHYADSVKGRFTISRDNAKNTVYLQMNSLKPEDTAVYYCAARFWYDYRHYDYWGQGTQVTVSS | low polyreactivity
33 | QVQLVESGGGLVQAGGSLRLSCAASGRIFYLNAMGWYRQAPGKERQLVATITSGGSTNYADSVKGRFTISRDNAKNTVYLQMNSLKPEDTAVYYCAAGVSWYGPYDYLWFYAFDYWGQGTQVTVSS | low polyreactivity
34 | QVQLVESGGGLVQAGGSLRLSCAASGRIFYLNGKGWYRQAPGKERELVAAISSSDDSTYYADSVKGRFTISRDNAKNTVYLQMKSLKPEDTAVYYCAAGYHQVQNYGDAYYWSELYSWGQGTQVTVSS | low polyreactivity
35 | QVQLVESGGGLVQAGGSLRLSCAASGRIFYLNGMGWYRQAPGKERELLAAISSSDDSTYYADSVKGRFTISRDNAKNTVYLQMISLKPEDTAVYYCAAGYHHVQNYGDAYYWSELYSWGQGTQVTVSS | low polyreactivity
36 | QVQLVESGGGLVQAGGSLRLSCAASGRIFYLNVMGWYRQAPGKERELVAAITRRDVTTYADSVKGRFTISRDNAKNTVYLEMNSLKPEDTAVYYCNAVYYNWIGFDYWGQGTQVTVSS | low polyreactivity
37 | QVQLVESGGGLVQAGGSLRLSCAASGRIFYLYTMAWYRQAPGKERELVAAITWSGGRTFYADSVKGRFTISRDNAKNTVYLQMNSLKPEDTAVYYCAARAYDSVGKYYYWGQGTQVNVSS | high polyreactivity
38 | QVQLVESGGGLVQAGGSLRLSCAASGRIFYLYTMGWYRQAPGKERELVAAITWSGGRTFYADSVKGRFTISRDNAKNTVYLQMNSLKPEDTAVYYCAARAYDSVGKYYYWGQGTQVTVSS | high polyreactivity
39 | QVQLVESGGGLVQAGGSLRLSCAASGRIFYNNVMGCYRQAPGKERELVAAISGNGGSTYYADSVKGRFTISRDNAKNTVYLQMNSLKPEDTAVYYCAARSSFRTLIFYQKFDYWGQGSQVTVSS | low polyreactivity
40 | QVQLVESGGGLVQAGGSLRLSCAASGRIFYNYAMGWYRQAPGKERELVAAISGSGGSTYYADSVKGRFTISRDNAKNTVYLQMNSLKPEDTEVYYCSTSGPQYYSRNFDYWGQGTQVTVSS | low polyreactivity
41 | QVQLVESGGGLVQAGGSLRLSCAASGRIFYNYAMRWYRQAPGKERELVAAISGSGGSTYYADSVKGRFTISRDNAKNTVYLQMNSLKPEDTAVYYCSTSGPQYYSRNFDYWGQGTQVTVSS | low polyreactivity
42 | QVQLVESGGGLVQAGGSLRLSCAASGRIFYNYGMGWYRQAPGKERELVAAISSSGGSTSYADSVKGRFTISRDNAKNTVYLQMNSLKPEDTAVYYCAASWPRWWRFGYWGQGTQVTVSS | low polyreactivity
43 | QVQLVESGGGLVQAGGSLRLSCAASGRIFYPNALGWYRQAPGTERELVAAITWRGGRTYYADSVKGRFTISRDNAKNTVYLQMNSLKPEDTAVYYCNAVAPGKYNHWGQGTQVTVSS | high polyreactivity
